What all share (assay): anisotropy competition; 25 mM NaPi, 225 mM NaCl, 10% v/v glycerol, 5 mM DTT, 0.2 mg/mL BSA, 22°C; 20 nM labelled DNA; pH not stated for the binding assay
Holding throughout (settings): protein: recombinant; tags: N-terminal 6xHis-lipoyl-TEV tag, cleaved; chain copies: 4

Series [1] addresses T1, Xlp53 (Xenopus laevis, UniProt Q7T1D0 1-362).
Another series addresses Mmp53 (Mus musculus, UniProt P02340 1-390).
Another series concerns the target T2, Dmp53 (Drosophila melanogaster, UniProt Q9N6D8 1-385).
T2 sequence: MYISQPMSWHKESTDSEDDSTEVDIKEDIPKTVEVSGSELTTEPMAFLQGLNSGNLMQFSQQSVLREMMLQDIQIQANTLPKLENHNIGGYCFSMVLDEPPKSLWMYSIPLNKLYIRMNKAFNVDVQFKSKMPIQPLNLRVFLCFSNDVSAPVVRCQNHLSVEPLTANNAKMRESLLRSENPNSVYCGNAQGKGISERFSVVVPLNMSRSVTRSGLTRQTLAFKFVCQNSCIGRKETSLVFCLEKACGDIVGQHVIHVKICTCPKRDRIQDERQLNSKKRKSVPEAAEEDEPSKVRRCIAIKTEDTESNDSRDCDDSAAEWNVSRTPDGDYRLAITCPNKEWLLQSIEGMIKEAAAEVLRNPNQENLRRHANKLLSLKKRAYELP

A further series addresses Hsp53 (Homo sapiens, UniProt P04637 1-393).
A further series addresses T3, ΔNp63γ (Homo sapiens, UniProt Q9H3D4-6 1-393).
T3 sequence: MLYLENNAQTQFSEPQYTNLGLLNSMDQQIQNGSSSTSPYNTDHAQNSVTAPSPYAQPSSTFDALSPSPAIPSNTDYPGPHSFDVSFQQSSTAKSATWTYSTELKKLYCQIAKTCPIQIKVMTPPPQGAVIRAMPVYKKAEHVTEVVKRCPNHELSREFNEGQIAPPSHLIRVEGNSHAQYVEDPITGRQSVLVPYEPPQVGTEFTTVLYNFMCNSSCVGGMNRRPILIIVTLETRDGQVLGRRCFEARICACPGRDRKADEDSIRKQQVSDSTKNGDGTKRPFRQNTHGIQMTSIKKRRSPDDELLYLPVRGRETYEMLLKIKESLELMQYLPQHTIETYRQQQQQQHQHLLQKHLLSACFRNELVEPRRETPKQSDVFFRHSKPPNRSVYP

The next series concerns the target T4, ΔNp63α (Homo sapiens, UniProt Q9H3D4-2 1-586).
T4 sequence: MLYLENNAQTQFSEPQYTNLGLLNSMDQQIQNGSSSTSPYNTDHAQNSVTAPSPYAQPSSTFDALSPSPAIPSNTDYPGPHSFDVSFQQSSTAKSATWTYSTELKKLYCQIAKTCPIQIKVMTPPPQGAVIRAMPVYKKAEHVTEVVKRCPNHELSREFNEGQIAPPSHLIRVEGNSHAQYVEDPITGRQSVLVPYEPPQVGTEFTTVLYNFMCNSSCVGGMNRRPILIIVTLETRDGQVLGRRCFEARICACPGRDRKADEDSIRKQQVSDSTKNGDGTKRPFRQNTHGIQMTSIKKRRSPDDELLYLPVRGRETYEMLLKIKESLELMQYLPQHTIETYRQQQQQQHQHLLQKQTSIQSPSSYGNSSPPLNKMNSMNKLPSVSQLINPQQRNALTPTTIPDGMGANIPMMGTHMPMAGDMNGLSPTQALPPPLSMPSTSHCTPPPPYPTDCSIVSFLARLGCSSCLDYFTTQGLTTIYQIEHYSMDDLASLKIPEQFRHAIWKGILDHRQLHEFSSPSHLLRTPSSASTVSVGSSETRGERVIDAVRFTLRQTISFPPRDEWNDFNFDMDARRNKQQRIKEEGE

The target of another series is T5, ΔNp73β (Homo sapiens, UniProt O15350-9 1-450).
T5 sequence: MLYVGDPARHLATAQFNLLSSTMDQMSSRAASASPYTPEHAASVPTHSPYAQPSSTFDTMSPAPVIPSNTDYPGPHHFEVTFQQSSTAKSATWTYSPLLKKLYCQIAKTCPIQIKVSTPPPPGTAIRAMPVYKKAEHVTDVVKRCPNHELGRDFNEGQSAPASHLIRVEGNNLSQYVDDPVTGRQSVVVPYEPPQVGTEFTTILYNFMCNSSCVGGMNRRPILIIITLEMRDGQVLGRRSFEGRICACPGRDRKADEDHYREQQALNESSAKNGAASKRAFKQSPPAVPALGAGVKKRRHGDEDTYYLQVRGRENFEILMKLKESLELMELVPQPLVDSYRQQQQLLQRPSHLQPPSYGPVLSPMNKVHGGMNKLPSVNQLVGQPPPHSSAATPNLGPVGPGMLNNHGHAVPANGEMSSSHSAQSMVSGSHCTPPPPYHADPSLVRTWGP

In another series the target is T6, Drp53 (Danio rerio, UniProt P79734 1-373).
T6 sequence: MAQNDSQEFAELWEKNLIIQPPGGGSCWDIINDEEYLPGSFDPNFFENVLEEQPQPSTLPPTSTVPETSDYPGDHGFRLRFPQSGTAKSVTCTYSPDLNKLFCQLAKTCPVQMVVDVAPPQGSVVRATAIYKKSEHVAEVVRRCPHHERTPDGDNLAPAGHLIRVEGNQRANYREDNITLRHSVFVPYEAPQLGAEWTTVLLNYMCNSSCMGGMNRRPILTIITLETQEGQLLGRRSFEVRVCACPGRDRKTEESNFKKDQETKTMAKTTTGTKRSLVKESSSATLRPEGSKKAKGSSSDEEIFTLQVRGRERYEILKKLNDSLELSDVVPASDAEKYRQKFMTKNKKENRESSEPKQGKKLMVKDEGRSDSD

A further series has as its target T7, ΔNp63β (Homo sapiens, UniProt Q9H3D4-4 1-461).
T7 sequence: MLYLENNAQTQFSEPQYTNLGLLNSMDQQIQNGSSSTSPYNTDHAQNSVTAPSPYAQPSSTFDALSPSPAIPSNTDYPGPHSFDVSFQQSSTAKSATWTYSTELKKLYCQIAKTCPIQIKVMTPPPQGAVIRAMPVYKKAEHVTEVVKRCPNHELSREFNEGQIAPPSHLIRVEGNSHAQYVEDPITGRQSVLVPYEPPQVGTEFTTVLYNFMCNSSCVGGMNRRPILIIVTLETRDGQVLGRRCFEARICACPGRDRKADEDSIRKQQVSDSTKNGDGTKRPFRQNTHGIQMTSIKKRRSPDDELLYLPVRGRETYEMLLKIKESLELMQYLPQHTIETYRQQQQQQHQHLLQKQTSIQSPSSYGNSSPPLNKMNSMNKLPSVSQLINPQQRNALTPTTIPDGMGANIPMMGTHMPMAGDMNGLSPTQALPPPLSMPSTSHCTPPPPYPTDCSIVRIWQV

Series [2] addresses T1, Xlp53. This is another data set of the same source.

T1 sequence (Q7T1D0 entry or part of it): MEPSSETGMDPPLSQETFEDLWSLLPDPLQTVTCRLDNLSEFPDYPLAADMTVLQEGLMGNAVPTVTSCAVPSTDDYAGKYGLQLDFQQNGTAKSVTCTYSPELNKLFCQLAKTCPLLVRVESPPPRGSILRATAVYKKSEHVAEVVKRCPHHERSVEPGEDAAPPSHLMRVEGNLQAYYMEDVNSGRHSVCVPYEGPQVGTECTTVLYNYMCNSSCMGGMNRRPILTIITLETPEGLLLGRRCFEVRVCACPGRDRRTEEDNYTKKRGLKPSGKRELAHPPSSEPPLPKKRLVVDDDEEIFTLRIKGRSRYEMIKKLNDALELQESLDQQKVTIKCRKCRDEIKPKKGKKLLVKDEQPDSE
Chain of Mmp53 (P02340 whole entry): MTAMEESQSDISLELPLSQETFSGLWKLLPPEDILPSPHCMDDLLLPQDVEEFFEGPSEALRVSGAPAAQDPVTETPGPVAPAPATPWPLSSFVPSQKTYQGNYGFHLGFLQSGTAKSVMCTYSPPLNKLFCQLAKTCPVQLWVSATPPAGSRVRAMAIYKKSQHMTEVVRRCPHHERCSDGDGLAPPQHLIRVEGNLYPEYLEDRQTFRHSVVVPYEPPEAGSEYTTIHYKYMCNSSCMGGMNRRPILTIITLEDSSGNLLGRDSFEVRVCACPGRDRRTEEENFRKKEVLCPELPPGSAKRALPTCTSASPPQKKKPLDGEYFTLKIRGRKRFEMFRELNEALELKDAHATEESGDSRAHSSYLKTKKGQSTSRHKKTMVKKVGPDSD
Chain of Hsp53 (P04637 whole entry): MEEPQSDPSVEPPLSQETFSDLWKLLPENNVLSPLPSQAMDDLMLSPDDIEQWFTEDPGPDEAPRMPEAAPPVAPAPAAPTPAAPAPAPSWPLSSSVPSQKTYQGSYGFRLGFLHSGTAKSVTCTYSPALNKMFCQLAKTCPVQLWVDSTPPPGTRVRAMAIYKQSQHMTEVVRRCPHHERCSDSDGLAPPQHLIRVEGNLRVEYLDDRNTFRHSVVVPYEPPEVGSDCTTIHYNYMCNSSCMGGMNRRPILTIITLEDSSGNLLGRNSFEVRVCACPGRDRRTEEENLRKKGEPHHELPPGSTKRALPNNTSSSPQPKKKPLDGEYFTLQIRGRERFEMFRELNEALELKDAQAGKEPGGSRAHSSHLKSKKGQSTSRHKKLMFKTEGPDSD

B1: A3C (dsDNA)
DNA 1: CGCGGCCATGTCCGGACATGTCCCGC
DNA 2: GCGGGACATGTCCGGACATGGCCGCG
In the case of B1, the binding signal with Xlp53 [1] was 0.82 ΔlogKd vs ref; with Mmp53 it was 0.46 ΔlogKd vs ref; with Dmp53, 0.75 ΔlogKd vs ref; in the series with Hsp53 it was 0.66 ΔlogKd vs ref; in the series with ΔNp63γ it was 0.93 ΔlogKd vs ref.

B2: G2C (dsDNA)
DNA 1: CGCGCACATGTCCGGACATGTCCCGC
DNA 2: GCGGGACATGTCCGGACATGTGCGCG
Take B2: the binding signal is 0.15 ΔlogKd vs ref with ΔNp63α; 0.44 ΔlogKd vs ref in the series with ΔNp73β; 0.27 ΔlogKd vs ref in the series with Xlp53 [1]; 0.41 ΔlogKd vs ref with Drp53; 0.28 ΔlogKd vs ref with Mmp53; 0.37 ΔlogKd vs ref with Hsp53. Moreover, the binding signal in the series with ΔNp63γ is 0.37 ΔlogKd vs ref; with ΔNp63β, 0.36 ΔlogKd vs ref.

B3: T6C (dsDNA)
DNA 1: CGCGGACACGTCCGGACATGTCCCGC
DNA 2: GCGGGACATGTCCGGACGTGTCCGCG
For B3, the binding signal with ΔNp63α was 0.25 ΔlogKd vs ref; in the series with ΔNp73β it was 0.62 ΔlogKd vs ref; in the series with Xlp53 [1] it was 0.7 ΔlogKd vs ref; with Drp53, 0.65 ΔlogKd vs ref; with Mmp53, 0.36 ΔlogKd vs ref; with Dmp53, 0.25 ΔlogKd vs ref. Further, the binding signal with Hsp53 is 0.53 ΔlogKd vs ref; in the series with ΔNp63γ, 0.52 ΔlogKd vs ref; with ΔNp63β, 0.57 ΔlogKd vs ref.

B4: A5G (dsDNA)
DNA 1: CGCGGACGTGTCCGGACATGTCCCGC
DNA 2: GCGGGACATGTCCGGACACGTCCGCG
Take B4: the Kd with Xlp53 [2] is -6.64 log10(M).

B5: G7C (dsDNA)
DNA 1: CGCGGACATCTCCGGACATGTCCCGC
DNA 2: GCGGGACATGTCCGGAGATGTCCGCG
Take B5: the binding signal in the series with ΔNp63α was 1.33 ΔlogKd vs ref; with ΔNp73β, 1.8 ΔlogKd vs ref; with Drp53 it was 1.3 ΔlogKd vs ref; with Mmp53 it was 0.67 ΔlogKd vs ref; in the series with Dmp53, 1.51 ΔlogKd vs ref; with Hsp53, 0.9 ΔlogKd vs ref. Moreover, the binding signal was 1.68 ΔlogKd vs ref with ΔNp63γ and 1.45 ΔlogKd vs ref in the series with ΔNp63β. For the same molecule, the Kd in the series with Xlp53 [2] is -5.7 log10(M).

B6: A5C (dsDNA)
DNA 1: CGCGGACCTGTCCGGACATGTCCCGC
DNA 2: GCGGGACATGTCCGGACAGGTCCGCG
For the molecule B6, the binding signal in the series with ΔNp63α is 0.3 ΔlogKd vs ref; with ΔNp73β it was 0.64 ΔlogKd vs ref; with Xlp53 [1] it was 0.48 ΔlogKd vs ref; with Drp53 it was 0.77 ΔlogKd vs ref; with Mmp53, 0.4 ΔlogKd vs ref; in the series with Dmp53 it was 0.54 ΔlogKd vs ref. The binding signal with Hsp53 was 0.45 ΔlogKd vs ref; with ΔNp63γ, 0.58 ΔlogKd vs ref; with ΔNp63β, 0.57 ΔlogKd vs ref.

Values taken from paper PMC2807882, “Conservation of DNA-binding specificity and oligomerisation properties within the p53 family”.
